{"source": "paper PMC6110258", "key": {"[1]": {"target": "H5-Strep-tag (Strep-tag II-fused haemagglutinin H5 ectodomain of A/duck/Viet Nam/TG24-01/2005 (H5N1) (influenza A virus A/duck/Viet Nam/TG24-01/2005 (H5N1) | not stated))", "assay": "SEC"}, "[2]": {"target": "H5-Strep-tag (Strep-tag II-fused haemagglutinin H5 ectodomain of A/duck/Viet Nam/TG24-01/2005 (H5N1) (influenza A virus A/duck/Viet Nam/TG24-01/2005 (H5N1) | not stated))", "assay": "cross-linking"}}, "data": [{"substance": "H5-Strep-tag (Strep-tag II-fused haemagglutinin H5 ectodomain of A/duck/Viet Nam/TG24-01/2005 (H5N1)", "values": [{"measurement": "stoichiometry N", "setting": "[1]", "result": 3}, {"measurement": "stoichiometry N", "setting": "[2]", "result": 3}]}]}
